Measured values taken from US20070071744A1 (published 2007).
Ends that are not written are not given here.

How the values were obtained:
Test in all cases: PepSpot peptide array
peptide 76 = target: T1, peptide 76 (human)
T1 peptide: Ac-PAPYKNPERWYRA
In short: (§1)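 Peptides synthesized on cellulose membranes were blocked, then probed with a primary antibody followed by an HRP-labelled secondary, or with an HRP-labelled primary alone. After T-TBS/TBS washes, chemiluminescence was recorded as light units per peptide as single measurements. A secondary-only incubation served as the non-specific binding control.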

peptide 94 = target: T2, peptide 94 (human)
T2 construct: also called DPYLWSAPSDPLE
T2 peptide: Ac-DPYLWSAPSDPLE
In short: as §1

peptide 119 = target: T3, peptide 119 (human)
T3 peptide: Ac-KVFTTETSRSITT
In short: as §1

LU (Light Units) (peptide 76): 78 LU | LU (Light Units) (peptide 94): 63 LU | LU (Light Units) (peptide 119): 287 LU
B1: monoclonal antibody hGP 5C4 (antibody, V domains shown)
VH: EVKLQESGGGLVQPGRSLKLSCTASGFTFSDYFMSWVRQAPTRGLEWVASISSGGASAYWRDSVKGRFTISRDNAKSALYLQMDSLRSEDTATYFCARGELDFDYWGQGVMVAVSS
VL: ADPNSTLLSASVGDRVTLNCTASQNVYKNLAWYQQKLGEAPRLLLYSANSQTGIPSRFSGSGSGPDFTLTISSLQPEDVASYFCQQYYSGNTFGAGTKLELKR
notes: Rat hybridoma antibody (Lou/C rats), heavy chain gamma 2a, light chain kappa; also called ab 5C4; anti-GPVI mAb 5C4
